Experimental findings from the RNAGym collection of RNA variant scans (doi:10.1093/molbev/msab373) are described below.

B1: Azoarcus group I ribozyme (parent)
chain: GUGCCUUGCGCCGGGAAACCACGCAAGGGAUGGUGUCAAAUUCGGCGAAACCUAAGCGCCCGCCCGGGCGUAUGGCAACGCCGAGCCAAGCUUCGGCGCCUGCGCCGAUGAAGGUGUAGAGACUAGACGGCACCCACCUAAGGCAAACGCUAUGGUGAAGGCAUAGUCCAGGGAGUGGCGAAAGUCACACAAACCGG

This data set covers variants of B1. Nature of the data set: reverse-splicing fitness (ratio to wild type); higher = more active; in vitro selection; Mg2+ level not given. The gist of the method: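 An in vitro group I ribozyme library with randomized positions was T7-transcribed and gel-purified. In triplicate, 10 pmol RNA in EPPS pH 7.5 was reacted with 50 pmoles of a 30-nt RNA substrate for 1 h at 37 °C across several added MgCl2 levels (1–48 mM), then stopped with EDTA. Products were reverse transcribed from a substrate-complementary primer, PCR-amplified and sequenced (HiSeq 4000). Fitness is a variant's read proportion after selection over that before, normalised to wild type.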
As to GUGCCUUGCGCCGGGAAACCACGCAAGGGAUGGUGUCAAAUUCGGCGAAACCUAAGCGCCCGCCCGGGCGUAUGGCAACGCAGAGCCAAGCUUCGGCGCCUGCGCCGAUGAAGGUGUAGAGACUAGACGGCACCCACCUAAGGCUAACGGUAUGGUGAAGGCAUAGUCAAGGGAGCGGCGAAAGUCACACAAACCGG [C82A A145U C150G C169A U176C], the reverse-splicing fitness is 0.00974.
As to GUGCCUUGCGCCGGGAAACCACGCAAGGGAUGGUGUCAAAUUCGGCGAAACCUAAGCGCCCGCCCGGGCGUAUGGCAACGCAGAGCCAAGCUUCGGCGCCUGCGCCGAUGAAGGUGUAGAGACUAGACGGCACCCACCUAAGGCUAACGGUAUGGUGAAGGCAUAGUCAAGGGAGGGGCGAAAGUCACACAAACCGG [C82A A145U C150G C169A U176G], the reverse-splicing fitness turned out to be 0.00583.
As to GUGCCUUGCGCCGGGAAACCACGCAAGGGAUGGUGUCAAAUUCGGCGAAACCUAAGCGCCCGCCCGGGCGUAUGGCAACGCAGAGCCAAGCUUCGGCGCCUGCGCCGAUGAAGGUGUAGAGACUAGACGGCACCCACCUAAGGCUAACGGUAUGGUGAAGGCAUAGUCAAGGGAGAGGCGAAAGUCACACAAACCGG [C82A A145U C150G C169A U176A], the reverse-splicing fitness is 0.0118.
On to GUGCCUUGCGCCGGGAAACCACGCAAGGGAUGGUGUCAAAUUCGGCGAAACCUAAGCGCCCGCCCGGGCGUAUGGCAACGCAGAGCCAAGCUUCGGCGCCUGCGCCGAUGAAGGUGUAGAGACUAGACGGCACCCACCUAAGGCUAACGGUAUGGUGAAGGCAUAGUCCAGGGAGUGGCGAAAGUCACACAAACCGG [C82A A145U C150G], for which the reverse-splicing fitness was determined as 0.0675.
In the case of GUGCCUUGCGCCGGGAAACCACGCAAGGGAUGGUGUCAAAUUCGGCGAAACCUAAGCGCCCGCCCGGGCGUAUGGCAACGCAGAGCCAAGCUUCGGCGCCUGCGCCGAUGAAGGUGUAGAGACUAGACGGCACCCACCUAAGGCUAACGAUAUGGUGAAGGCAUAGUCGAGGGAGGGGCGAAAGUCACACAAACCGG [C82A A145U C150A C169G U176G] it was 0.0059; in that of GUGCCUUGCGCCGGGAAACCACGCAAGGGAUGGUGUCAAAUUCGGCGAAACCUAAGCGCCCGCCCGGGCGUAUGGCAACGCAGAGCCAAGCUUCGGCGCCUGCGCCGAUGAAGGUGUAGAGACUAGACGGCACCCACCUAAGGCUAACGAUAUGGUGAAGGCAUAGUCGAGGGAGCGGCGAAAGUCACACAAACCGG [C82A A145U C150A C169G U176C], 0.0131; in that of GUGCCUUGCGCCGGGAAACCACGCAAGGGAUGGUGUCAAAUUCGGCGAAACCUAAGCGCCCGCCCGGGCGUAUGGCAACGCAGAGCCAAGCUUCGGCGCCUGCGCCGAUGAAGGUGUAGAGACUAGACGGCACCCACCUAAGGCUAACGAUAUGGUGAAGGCAUAGUCGAGGGAGAGGCGAAAGUCACACAAACCGG [C82A A145U C150A C169G U176A], 0.0139.
In the case of GUGCCUUGCGCCGGGAAACCACGCAAGGGAUGGUGUCAAAUUCGGCGAAACCUAAGCGCCCGCCCGGGCGUAUGGCAACGCAGAGCCAAGCUUCGGCGCCUGCGCCGAUGAAGGUGUAGAGACUAGACGGCACCCACCUAAGGCUAACGAUAUGGUGAAGGCAUAGUCUAGGGAGCGGCGAAAGUCACACAAACCGG [C82A A145U C150A C169U U176C] it was 0.013; in that of GUGCCUUGCGCCGGGAAACCACGCAAGGGAUGGUGUCAAAUUCGGCGAAACCUAAGCGCCCGCCCGGGCGUAUGGCAACGCAGAGCCAAGCUUCGGCGCCUGCGCCGAUGAAGGUGUAGAGACUAGACGGCACCCACCUAAGGCUAACGAUAUGGUGAAGGCAUAGUCUAGGGAGGGGCGAAAGUCACACAAACCGG [C82A A145U C150A C169U U176G], 0.00584; in that of GUGCCUUGCGCCGGGAAACCACGCAAGGGAUGGUGUCAAAUUCGGCGAAACCUAAGCGCCCGCCCGGGCGUAUGGCAACGCAGAGCCAAGCUUCGGCGCCUGCGCCGAUGAAGGUGUAGAGACUAGACGGCACCCACCUAAGGCUAACGAUAUGGUGAAGGCAUAGUCUAGGGAGAGGCGAAAGUCACACAAACCGG [C82A A145U C150A C169U U176A], 0.0139.
GUGCCUUGCGCCGGGAAACCACGCAAGGGAUGGUGUCAAAUUCGGCGAAACCUAAGCGCCCGCCCGGGCGUAUGGCAACGCAGAGCCAAGCUUCGGCGCCUGCGCCGAUGAAGGUGUAGAGACUAGACGGCACCCACCUAAGGCUAACGAUAUGGUGAAGGCAUAGUCGAGGGAGUGGCGAAAGUCACACAAACCGG [C82A A145U C150A C169G]: the reverse-splicing fitness came to 0.00813.
In the case of GUGCCUUGCGCCGGGAAACCACGCAAGGGAUGGUGUCAAAUUCGGCGAAACCUAAGCGCCCGCCCGGGCGUAUGGCAACGCAGAGCCAAGCUUCGGCGCCUGCGCCGAUGAAGGUGUAGAGACUAGACGGCACCCACCUAAGGCUAACGAUAUGGUGAAGGCAUAGUCUAGGGAGUGGCGAAAGUCACACAAACCGG [C82A A145U C150A C169U] it was 0.00955.
With GUGCCUUGCGCCGGGAAACCACGCAAGGGAUGGUGUCAAAUUCGGCGAAACCUAAGCGCCCGCCCGGGCGUAUGGCAACGCAGAGCCAAGCUUCGGCGCCUGCGCCGAUGAAGGUGUAGAGACUAGACGGCACCCACCUAAGGCUAACGGUAUGGUGAAGGCAUAGUCUAGGGAGUGGCGAAAGUCACACAAACCGG [C82A A145U C150G C169U], the reverse-splicing fitness was found to be 0.00935.
On to GUGCCUUGCGCCGGGAAACCACGCAAGGGAUGGUGUCAAAUUCGGCGAAACCUAAGCGCCCGCCCGGGCGUAUGGCAACGCAGAGCCAAGCUUCGGCGCCUGCGCCGAUGAAGGUGUAGAGACUAGACGGCACCCACCUAAGGCUAACGGUAUGGUGAAGGCAUAGUCAAGGGAGUGGCGAAAGUCACACAAACCGG [C82A A145U C150G C169A], for which the reverse-splicing fitness is 0.00902.
GUGCCUUGCGCCGGGAAACCACGCAAGGGAUGGUGUCAAAUUCGGCGAAACCUAAGCGCCCGCCCGGGCGUAUGGCAACGCAGAGCCAAGCUUCGGCGCCUGCGCCGAUGAAGGUGUAGAGACUAGACGGCACCCACCUAAGGCUAACGGUAUGGUGAAGGCAUAGUCGAGGGAGUGGCGAAAGUCACACAAACCGG [C82A A145U C150G C169G]: the reverse-splicing fitness worked out at 0.00797.
